The values below come from US9168286B2, “Methods and compositions for use in treatment of patients with autoantibody positive disease” (Human Genome Sciences, Inc., priority 2005, dated 2015).

The data set deals with subjects with SLE. The data set can be described thus: Phase 2 clinical trial of belimumab in SLE: safety.

Procedure: 449 subjects with SLE by ACR criteria (Tan et al., Arthritis Rheum. 25:1271-7, (1982); and Hochberg et al., Arthritis Rheum. 40:1725, (1997)), with a history of measurable autoantibodies and SELENA SLEDAI score ≧4 at screening were dosed.
Subjects who completed the 52-week treatment period were given the option to continue the study for a 24-week extension period. […] B-cells were analyzed every 1-2 months by 4-color FACS (CD19, CD20, CD27, CD69, CD38, CD138 and CD45). Serum autoantibody, including anti-dsDNA Ab, Ig isotypes, total protein, and albumin levels were obtained at the same visits. The likelihood ratio chi-squared, Wilcoxon test or t-test was used to analyze the changes in the biological markers.

For “belimumab: an antibody that neutralizes Neutrokine-alpha protein”, the “Immunogenicity to belimumab, number of subjects” value (1 mg/kg) is on record as 1 subject. In addition, for the setting “human, in vivo”, the Infusion reactions result is on record as “rare, with only 1 severe event reported” and the tolerability result is reported as “well tolerated”. Further, under “placebo 8%, p<0.05”, the subjects with pleurisy came out at 3.3%.
